According to PMC3173086:

Target: MppA (murein tripeptide-binding protein of E. coli), His tag cleaved (E. coli K-12) (UniProt P77348)
Assay: other fluorescence titration

UniProt P77348, sequence (P77348 23-537, tags left off): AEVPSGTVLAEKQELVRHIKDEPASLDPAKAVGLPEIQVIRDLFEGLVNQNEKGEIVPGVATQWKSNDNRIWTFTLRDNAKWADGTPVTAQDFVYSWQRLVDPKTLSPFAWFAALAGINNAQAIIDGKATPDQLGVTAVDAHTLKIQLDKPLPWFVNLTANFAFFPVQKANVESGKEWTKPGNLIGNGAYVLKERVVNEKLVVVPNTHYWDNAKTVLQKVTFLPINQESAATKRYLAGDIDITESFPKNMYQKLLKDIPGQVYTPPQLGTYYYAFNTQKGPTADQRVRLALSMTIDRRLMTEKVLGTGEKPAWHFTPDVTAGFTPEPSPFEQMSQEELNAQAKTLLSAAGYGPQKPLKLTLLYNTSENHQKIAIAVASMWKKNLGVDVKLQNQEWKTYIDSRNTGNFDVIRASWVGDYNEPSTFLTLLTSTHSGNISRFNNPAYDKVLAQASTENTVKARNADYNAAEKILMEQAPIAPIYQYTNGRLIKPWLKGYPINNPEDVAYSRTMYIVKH

- Kd: 130 µM
Substance: L-Ala-γ-D-Glu-L-Lys (peptide)
